Laboratory results from the supplement of paper PMC6379048.

What was measured:
Experiment in all cases: EC50 of free RNA motif oligo competing protein binding to immobilised probe
U2AF1 = target: T1, U2AF1 (UniProt Q01081)
T1 sequence: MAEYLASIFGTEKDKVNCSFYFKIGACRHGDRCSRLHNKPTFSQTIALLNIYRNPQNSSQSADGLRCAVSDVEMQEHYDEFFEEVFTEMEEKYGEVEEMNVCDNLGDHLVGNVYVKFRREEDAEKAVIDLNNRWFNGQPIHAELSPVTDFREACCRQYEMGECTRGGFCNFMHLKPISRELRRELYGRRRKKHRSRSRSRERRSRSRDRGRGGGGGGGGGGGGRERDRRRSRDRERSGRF
Summary of the method: (§1)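 HEK293-FT lysate (2.5 mg protein/well) was treated with free RNA oligos (0 nM to 30 μM) for 1 h at 4°C, then with the same oligos on NHS-Sepharose beads for 30 min at 4°C. Bound proteins were quantified by label-free LC-MS/MS relative to the control. EC50 came from a four-parameter log-logistic fit, and Kd is EC50 times a protein-dependent depletion factor.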

RBM47 = target: T2, RBM47 (UniProt A0AV96)
T2 sequence: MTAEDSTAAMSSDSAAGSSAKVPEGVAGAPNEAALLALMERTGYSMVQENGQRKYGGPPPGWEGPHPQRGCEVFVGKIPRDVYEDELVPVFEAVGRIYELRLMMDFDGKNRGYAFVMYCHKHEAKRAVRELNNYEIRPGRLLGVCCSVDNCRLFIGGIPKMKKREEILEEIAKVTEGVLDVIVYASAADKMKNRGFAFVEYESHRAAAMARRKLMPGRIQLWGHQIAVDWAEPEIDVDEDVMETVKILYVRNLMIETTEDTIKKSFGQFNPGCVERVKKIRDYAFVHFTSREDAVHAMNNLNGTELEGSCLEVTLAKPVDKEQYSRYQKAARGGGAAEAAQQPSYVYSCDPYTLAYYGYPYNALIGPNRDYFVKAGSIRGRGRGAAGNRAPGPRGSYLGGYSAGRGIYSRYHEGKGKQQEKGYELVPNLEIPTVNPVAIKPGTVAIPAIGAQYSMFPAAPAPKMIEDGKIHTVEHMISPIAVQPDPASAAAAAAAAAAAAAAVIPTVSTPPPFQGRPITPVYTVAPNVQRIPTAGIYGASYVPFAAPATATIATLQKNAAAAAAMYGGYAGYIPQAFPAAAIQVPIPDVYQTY
Summary of the method: as §1

GPATCH11 = GPATCH11 (UniProt Q8N954)
Chain of GPATCH11 (Q8N954 whole entry): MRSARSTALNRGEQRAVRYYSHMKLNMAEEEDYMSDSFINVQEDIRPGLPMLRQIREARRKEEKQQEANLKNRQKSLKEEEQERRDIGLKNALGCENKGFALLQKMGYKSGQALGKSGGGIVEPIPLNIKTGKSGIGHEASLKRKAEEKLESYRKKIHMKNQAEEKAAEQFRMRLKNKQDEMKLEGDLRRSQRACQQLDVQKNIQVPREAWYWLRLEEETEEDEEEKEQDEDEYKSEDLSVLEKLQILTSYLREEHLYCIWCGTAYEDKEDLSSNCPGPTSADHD
Summary of the method: as §1

SF3B5 = target: T3, SF3B5 (UniProt Q9BWJ5)
T3 sequence: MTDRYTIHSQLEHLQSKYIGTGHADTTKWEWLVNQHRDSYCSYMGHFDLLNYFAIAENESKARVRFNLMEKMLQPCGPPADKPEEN
Summary of the method: as §1

RPS18 = RPS18 (UniProt P62269)
Summary of the method: as §1

RPSA = RPSA (UniProt P08865)
Summary of the method: as §1

IGF2BP2 = IGF2BP2 (UniProt Q9Y6M1)
Chain of IGF2BP2 (Q9Y6M1 whole entry): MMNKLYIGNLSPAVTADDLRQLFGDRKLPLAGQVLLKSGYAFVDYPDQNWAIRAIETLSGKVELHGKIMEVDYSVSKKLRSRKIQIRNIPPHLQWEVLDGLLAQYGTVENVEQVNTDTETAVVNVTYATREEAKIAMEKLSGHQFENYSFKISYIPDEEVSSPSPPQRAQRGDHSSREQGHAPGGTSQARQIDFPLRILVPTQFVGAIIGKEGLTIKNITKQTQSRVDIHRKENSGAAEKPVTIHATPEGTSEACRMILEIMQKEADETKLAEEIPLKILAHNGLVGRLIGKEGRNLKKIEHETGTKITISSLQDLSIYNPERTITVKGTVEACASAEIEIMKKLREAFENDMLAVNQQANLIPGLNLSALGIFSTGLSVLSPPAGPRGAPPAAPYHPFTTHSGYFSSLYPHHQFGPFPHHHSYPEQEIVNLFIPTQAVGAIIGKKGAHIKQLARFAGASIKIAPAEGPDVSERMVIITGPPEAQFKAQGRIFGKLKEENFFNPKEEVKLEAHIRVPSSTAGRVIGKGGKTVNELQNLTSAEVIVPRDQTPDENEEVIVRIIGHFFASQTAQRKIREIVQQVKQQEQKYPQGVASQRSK
Summary of the method: as §1

MRPL37 = MRPL37 (UniProt Q9BZE1)
Summary of the method: as §1

SRSF6 = SRSF6 (UniProt Q13247)
Chain of SRSF6 (Q13247 whole entry, looked up): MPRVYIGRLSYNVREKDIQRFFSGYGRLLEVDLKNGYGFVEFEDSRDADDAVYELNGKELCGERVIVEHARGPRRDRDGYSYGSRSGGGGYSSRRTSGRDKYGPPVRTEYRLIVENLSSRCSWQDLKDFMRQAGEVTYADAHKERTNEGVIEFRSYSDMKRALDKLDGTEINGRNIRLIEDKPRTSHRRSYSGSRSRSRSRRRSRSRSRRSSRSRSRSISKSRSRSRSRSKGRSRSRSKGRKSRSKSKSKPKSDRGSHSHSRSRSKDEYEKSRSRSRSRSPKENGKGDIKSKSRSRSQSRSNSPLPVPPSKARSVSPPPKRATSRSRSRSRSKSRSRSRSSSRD
Summary of the method: as §1

HNRNPU = HNRNPU (UniProt Q00839)
Chain of HNRNPU (Q00839 whole entry): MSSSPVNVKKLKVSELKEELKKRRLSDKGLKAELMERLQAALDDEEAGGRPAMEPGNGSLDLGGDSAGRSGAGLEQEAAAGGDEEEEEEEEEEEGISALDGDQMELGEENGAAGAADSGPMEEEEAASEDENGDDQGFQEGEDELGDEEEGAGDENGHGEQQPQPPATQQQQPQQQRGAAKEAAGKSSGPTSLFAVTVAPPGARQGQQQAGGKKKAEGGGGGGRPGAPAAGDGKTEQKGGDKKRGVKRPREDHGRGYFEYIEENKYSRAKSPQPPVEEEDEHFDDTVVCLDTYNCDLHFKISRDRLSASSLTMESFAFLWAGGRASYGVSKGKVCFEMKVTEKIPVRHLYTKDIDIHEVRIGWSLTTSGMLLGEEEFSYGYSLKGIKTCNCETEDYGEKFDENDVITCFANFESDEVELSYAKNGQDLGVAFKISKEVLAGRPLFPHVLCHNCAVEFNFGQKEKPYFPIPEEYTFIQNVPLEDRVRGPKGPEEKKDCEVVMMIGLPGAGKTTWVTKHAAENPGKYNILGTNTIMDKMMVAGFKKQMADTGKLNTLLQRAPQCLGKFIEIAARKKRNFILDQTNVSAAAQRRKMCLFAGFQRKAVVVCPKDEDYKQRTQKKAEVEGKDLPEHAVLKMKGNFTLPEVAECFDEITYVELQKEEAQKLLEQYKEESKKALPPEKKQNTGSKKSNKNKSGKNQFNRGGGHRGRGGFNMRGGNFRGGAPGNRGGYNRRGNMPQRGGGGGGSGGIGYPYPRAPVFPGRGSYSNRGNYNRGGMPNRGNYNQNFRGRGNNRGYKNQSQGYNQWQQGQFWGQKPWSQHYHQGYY
Summary of the method: as §1

ZCRB1 = target: T4, ZCRB1 (UniProt Q8TBF4)
T4 sequence: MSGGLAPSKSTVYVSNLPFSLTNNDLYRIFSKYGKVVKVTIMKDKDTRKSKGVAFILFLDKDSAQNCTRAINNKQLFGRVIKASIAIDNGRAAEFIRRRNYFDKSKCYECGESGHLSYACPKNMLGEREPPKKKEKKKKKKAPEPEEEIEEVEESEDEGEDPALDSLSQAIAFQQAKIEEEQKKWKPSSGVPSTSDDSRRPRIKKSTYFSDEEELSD
Summary of the method: as §1

HNRNPM = target: T5, HNRNPM (UniProt P52272)
T5 sequence: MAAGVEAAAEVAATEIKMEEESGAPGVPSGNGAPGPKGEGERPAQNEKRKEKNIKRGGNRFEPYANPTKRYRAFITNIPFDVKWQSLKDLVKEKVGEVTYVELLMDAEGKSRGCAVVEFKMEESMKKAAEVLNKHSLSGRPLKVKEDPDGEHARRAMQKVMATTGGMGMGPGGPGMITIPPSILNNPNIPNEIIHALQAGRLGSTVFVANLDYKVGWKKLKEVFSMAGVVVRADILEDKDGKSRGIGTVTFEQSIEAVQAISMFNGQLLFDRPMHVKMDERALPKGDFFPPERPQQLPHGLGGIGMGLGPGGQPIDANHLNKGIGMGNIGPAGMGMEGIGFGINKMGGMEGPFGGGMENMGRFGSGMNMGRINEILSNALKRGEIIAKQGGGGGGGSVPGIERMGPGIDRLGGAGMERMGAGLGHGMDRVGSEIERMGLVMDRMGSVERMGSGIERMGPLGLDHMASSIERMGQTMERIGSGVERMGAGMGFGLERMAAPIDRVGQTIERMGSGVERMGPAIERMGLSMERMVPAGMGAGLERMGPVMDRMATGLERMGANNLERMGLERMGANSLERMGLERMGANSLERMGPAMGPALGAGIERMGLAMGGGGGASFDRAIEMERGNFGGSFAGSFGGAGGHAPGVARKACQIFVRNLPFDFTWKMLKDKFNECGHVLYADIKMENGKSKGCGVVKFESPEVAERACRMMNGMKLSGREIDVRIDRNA
Summary of the method: as §1

TARDBP = TARDBP (UniProt Q13148)
Chain of TARDBP (Q13148 whole entry): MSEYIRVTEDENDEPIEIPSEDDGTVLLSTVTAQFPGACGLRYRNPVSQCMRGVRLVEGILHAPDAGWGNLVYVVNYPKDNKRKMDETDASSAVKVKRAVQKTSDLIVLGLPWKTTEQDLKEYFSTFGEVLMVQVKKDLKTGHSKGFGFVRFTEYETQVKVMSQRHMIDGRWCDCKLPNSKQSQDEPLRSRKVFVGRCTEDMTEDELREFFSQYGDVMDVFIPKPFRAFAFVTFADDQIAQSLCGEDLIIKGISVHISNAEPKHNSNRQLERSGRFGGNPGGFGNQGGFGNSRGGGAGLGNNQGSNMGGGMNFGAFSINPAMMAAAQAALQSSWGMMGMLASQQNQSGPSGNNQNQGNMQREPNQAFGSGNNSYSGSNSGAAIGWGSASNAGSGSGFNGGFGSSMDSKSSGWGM
Summary of the method: as §1

AAUAAA
EC50 (U2AF1): 1460 nM
EC50 (RBM47): 3730 nM
EC50 (GPATCH11): 122 nM
EC50 (SF3B5): 1210 nM

CUGUCCU
EC50 (RPS18): 89.4 nM
EC50 (RPSA): 491 nM
EC50 (IGF2BP2): 2970 nM
EC50 (MRPL37): 245 nM
EC50 (SRSF6): 1140 nM
EC50 (HNRNPU): 378 nM

UAUUUAU
EC50 (ZCRB1): 3800 nM
EC50 (HNRNPM): 6800 nM
EC50 (TARDBP): 2790 nM
